# Results as given in article PMC5601474, “Radiation damage at the active site of human alanine:glyoxylate aminotransferase reveals that the cofactor position is finely tuned during catalysis” (Scientific Reports, 2017).
# Where a chain is given by its changes, count along the chain named. Names and notes keep the numbering of the source.
# B1: human alanine:glyoxylate aminotransferase major allele, wild type (enzyme)
# chain: MASHKLLVTPPKALLKPLSIPNQLLLGPGPSNLPPRIMAAGGLQMIGSMSKDMYQIMDEIKEGIQYVFQTRNPLTLVISGSGHCALEAALVNVLEPGDSFLVGANGIWGQRAVDIGERIGARVHPMTKDPGGHYTLQEVEEGLAQHKPVLLFLTHGESSTGVLQPLDGFGELCHRYKCLLLVDSVASLGGTPLYMDRQGIDILYSGSQKALNAPPGTSLISFSDKAKKKMYSRKTKPFSFYLDIKWLANFWGCDDQPRMYHHTIPVISLYSLRESLALIAEQGLENSWRQHREAAAYLHGRLQALGLQLFVKDPALRLPTVTTVAVPAGYDWRDIVSYVIDHFDIEIMGGLGPSTGKVLRIGLLGCNATRENVDRVTEALRAALQHCPKKKL
# modifications: Lys-209 in Schiff base linkage with PLP (internal aldimine); the linkage is photoreduced and broken in the late dataset
# notes: alanine:glyoxylate aminotransferase (AGT), human, major allele; also called AGT-Ma; AGT
# B2: human alanine:glyoxylate aminotransferase major allele, pathogenic variant D183N (enzyme)
# chain: B1 chain with D183N
# modifications: Lys-209 in Schiff base linkage with PLP (internal aldimine)
# notes: alanine:glyoxylate aminotransferase (AGT), human, major allele, with the pathogenic (primary hyperoxaluria type I) mutation D183N; also called AGT-Ma D183N; AGT-D183N
# Tests used:
# [1] = target: the molecule itself; test: crystal structure; orthorhombic crystal P212121 of AGT-Ma holo, hanging drop, 21 °C, PEG 6K 12%, 0.1 M MES pH 5.0; 1.7 Å; 2 molecules (1 dimer) per asymmetric unit
# [2] = target: the molecule itself; test: crystal structure; crystal P212121 of AGT-Ma-D183N holo, sitting drop, 21 °C, PEG 10K 17%, 0.1 M Bis-Tris pH 5.5, 0.1 M ammonium acetate; 1.8 Å; eight molecules (4 dimers) per asymmetric unit
Protein,binding result [1],binding result [2]
B1,binds,–
B2,–,binds
